Biological target: T1, AIMP1 protein (SEQ ID NO: 1) consisting of 312 amino acids (Homo sapiens (Human), UniProt Q12904 1-312)
T1 construct: also called purified AIMP1 protein; AIMP1 protein antigen
T1 sequence: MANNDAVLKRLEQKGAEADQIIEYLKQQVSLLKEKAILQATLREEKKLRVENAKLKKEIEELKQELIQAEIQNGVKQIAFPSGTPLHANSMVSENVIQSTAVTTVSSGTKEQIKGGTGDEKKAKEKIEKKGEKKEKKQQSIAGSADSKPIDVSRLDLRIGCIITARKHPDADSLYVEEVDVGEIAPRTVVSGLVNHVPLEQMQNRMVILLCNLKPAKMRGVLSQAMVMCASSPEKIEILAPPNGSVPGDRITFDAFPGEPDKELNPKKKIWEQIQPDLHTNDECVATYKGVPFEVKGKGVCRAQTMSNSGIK
Test: purified GST-gp96 fragments incubated with AIMP1, Western blot with anti-AIMP1 antibody
Procedure: The purified GST-gp96 fragments were cultured with AIMP1 and analyzed by Western blot using an anti-AIMP1 antibody, and the analysis results are shown in FIG. 16.

binding result: binds
B1: GST-gp96-(699-799) (other)
chain: RRIKEDEDDKTVLDLAVVLFETATLRSGYLLPDTKAYGDRIERMLRLSLNIDPDAKVEEEPEEEPEETAEDTTEDTEQDEDEEMDVGTDEEEETAKESTAE
notes: GST-tag fusion purified on GSH agarose; also called domain involved in oligomerization; not shown: GST tag encoded by the pGEX4T3 vector (Amersham Biosciences)

— US20100138941A1 (IMAGENE, published 2010)
